Holding throughout (assay): dynamic light scattering
The target of assay [1] is full-length BLM protein (human) (UniProt P54132).
Assay [2] shares this target. This is another data set of the same source.
Assay [3] shares this target. The source holds these as a separate data set.

Like-named read-outs stand apart in the source and are kept apart here.

As a reminder, the stoichiometry N is a count of units in the complex or per binding partner. For the substance “full-length BLM protein, P54132 1-1417 (enzyme; other documents disagree on this pair)”, in assay [1], the % mass in the high-order oligomer peak (radius 9.9 nm) came to 96.1%, the % mass in the high-order oligomer peak (radius 10.1 nm) stood at 97.2%, the % mass in the high-order oligomer peak (radius 12.6 nm) came to 62.2% and the % mass in the high-order oligomer peak (radius 12.7 nm) came to 57.8%. In assay [1], this substance returned a % mass in the high-order oligomer peak (radius 20.3 nm) of 90.5%, a % mass in the low-order oligomer peak (radius 8.2 nm) of 37.8% and a stoichiometry N of 6. In addition, in assay [2], the stoichiometry N is 6. Also, the stoichiometry N in assay [3] is 3.

(Values after article PMC3479192.)
